{"source": "patent US20210072252A1", "about": "(WASHINGTON UNIVERSITY, published 2021)", "binders": {"B1": {"name": "LysNAAB (enzyme)", "chain": "ANDKSRQTFVVRSKILAAIRQFMVARGFMEVETPMMQVIPGGASARPFITHHNALDLDMYLRIAPELYLKRLVVGGFERVFEINRNFRNEGISVRHNPEFTMMELYMAYADYHDLIELTESLFRTLAQEVLGTTKVTYGEHVFDFGKPFEKLTMREAIKKYRPETDMADLDNFDAAKALAESIGITVEKSWGLGRIVTEIFDEVAEAHLIQPTFITEYPAEVSPLARRNDVNPEITDRFEFFIGGREIGNGFSELNDAEDQAERFQEQVNAKAAGDDEAMFYDEDYVTALEYGLPPTAGLGIGIDRMIMLFTNSHTIRDVILFPAMRP", "notes": "Purified on GSTrap; also called Lysine"}, "B2": {"name": "GluNAAB (enzyme)", "chain": "IKTRFAPSPTGYLHVGGARTALYSWLFARNHGGEFVLRIEDTDLERSTPEAIEAIMDGMNWLSLEWDEGPYYQTKRFDRYNAVIDQMLEEGTAYKCYCSKERLEALREEQMAKGEKPRYDGRCRHSHEHHADDEPCVVRFANPQEGSVVFDDQIRGPIEFSNQELDDLIIRRTDGSPTYNFCVVVDDWDMEITHVIRGEDHINNTPRQINILKALNAPVPVYAHVSMINGDDGKKLSKRHGAVSVMQYRDDGYLPEALLNYLVRLGWSHGDQEIFTREEMIKYFTLNAVSKSASAFNTDKLLWLNHHYI", "notes": "also called Glutamate"}, "B3": {"name": "GlnNAAB (enzyme)", "chain": "TNFIRQIIDEDLASGKHTTVHTRFPPEPNGYLHIGHAKSICLNFGIAQDYKGQCNLRFDDTNPVKEDIEYVESIKNDVEWLGFHWSGNVRYSSDYFDQLHAYAIELINKGLAYVDELTPEQIREYRGTLTQPGKNSPYRDRSVEENLALFEKMRTGGFEEGKACLRAKIDMASPFIVMRDPVLYRIKFAEHHQTGNKWCIYPMYDFTHCISDALEGITHSLCTLEFQDNRRLYDWVLDNITIPVHPRQYEFSR", "notes": "Purified on GSTrap; also called Glutamine"}, "B4": {"name": "SerNAAB (enzyme)", "chain": "MLDPNLLRNEPDAVAEKLARRGFKLDVDKLGALEERRKVLQVKTENLQAERNSRSKSIGQAKARGEDIEPLRLEVNKLGEELDAAKAELDALQAEIRDIALTIPNLPADEVPVGKDENDNVEVSRWGTPREFDFEVRDHVTLGEMYSGLDFAAAVKLTGSRFVVMKGQIARMHRALSQFMLDLHTEQHGYSENYVPYLVNQDTLYGTGQLPKFAGDLFHTRPLEEEADTSNYALIPTAEVPLTNLVRGEIIDEDDLPIKMTAHTPCFRSEAGSYGRDTRGLIRMHQFDKVEMVQIVRPEDSMAALEEMTGHAEKVLQLLGLPYRKIILCTGDMGFGACKTYDLEVWIPAQNTYREISSCSNVWDFQARRMQARCRSKSDKKTRLVHTLNGSGLAVGRTLVAVMENYQQADGRIEVPEVLRPYMNGLEYI", "notes": "Purified on GSTrap; also called Serine"}, "B5": {"name": "Met NAAB (as used in biolayer interferometry) (designed binder)", "chain": "AKKILVTCASPYANGSIHLGHMLEHIQADVWVRYQRMRGHEVNFICADDAHGTPIMLKAQQLGITPEQMIGEMSQEHQTDFAGFNISYDNYHSTHSEENRQLSELIYSRLKENGFIKNRTISQLYDPEKGMFLPDRFVKGTCPKCKSPDQYGDNCEVCGATYSPTELIEPKSVVSGATPVMRDSEHFFFDLPSFSEMLQAWTRSGALQEQVANKMQEWFESGLQQWDISRDAPYFGFEIPNAPGKYFYVWLDAPIGLMGSFKNLCDKRGDSVSFDEYWKKDSTAELYHFIGKGIVYFLSLFWPAMLEGSNFRKPSNLFVHGYVTVNGAKMSKSRGTFIKASTWLNHFDADSLRYYYTAKLSSRIDDIDLNLEDFVQRVNADIVNKVVNLASRNAGFINKRFDGVLASELADPQLYKTFTDAAEVIGEAWESREFGKAVREIMALADLANRYVDEQAPWVVAKQEGRDADLQAICSMGINLFRVLMTYLKPVLPKLTERAEAFLNTELTWDGIQQPLLGHKVNPFKALYNRIDMRQVEALVEASK", "notes": "Same engineered MetRS fragment as m5, here without stated Cy5 label; also called Methionine"}, "B6": {"name": "IleNAAB (enzyme)", "chain": "FPMRGDLAKREPGMLARWTDDDLYGIIRAAKKGKKTFILHDGPPYANGSIHIGHSVNKILKDIIIKSKGLSGYDSPYVPGWDCHGLPIELKVEQEYGKPGEKFTAAEFRAKCREYAATQVDGQRKDFIRLGVLGDWSHPYLTMDFKTEANIIRALGKIIGNGHLHKGAKPVHWCVDCRSALAEAEVEYYDKTSPSIVAFQAVDQDALKTKFGVSNVNGPISLVIWTTTPWTLPANRAISIAPDFDYALVQIDGQAVILAKDLVESMQRIGVSDYTILGTVKGAELELLRFTHPFMDFDVPAILGDHVTLDAGTGAVHTAPGHGPDDYVIGQKYGLETANPVGPDGTYLPGTYPTLDGVNVFKANDIVVALLQEKGALLHVEKMQHSYPCCWRHKTPIIFRATPQWFVSMDQKGLRAQSLKEIKGVQWIPDWGQARIESMVANRPDWCISRQRTWGVPMSLFVHKDTEELHPRTLELMEEVAKRVEVDGIQAWWDLDAKEILGDEADQYVKVPDTLDVWFDSGSTHSSVVDVRPEFAGHAADMYLEGSDQHRGWFMSSLMISTAMKGKAPYRQVLTHGFTVDGQGRKMSKSIGNTVSPQDVMNKLGADILRLWVASTDYTGEMAVSDEILKRAADSYRRIRNTARFLLANLNGFDPAKDMVKPEEMVVLDRWAVGCAKAAQEDILKAYEAYDFHEVVQRLMRFCSVEMGSFYLDIIKDRQYTAKADSVARRSCQTALYHIAEALVRWMAPILSFTADEVWGYLPGERE", "notes": "Purified on GSTrap; also called Isoleucine"}, "B7": {"name": "eLAP, engineered leucine-specific aminopeptidase (NAAB for N-terminal leucine) (designed binder)", "chain": "MAISIKTPEDIEKMRVAGRLAAEVLEMIEPYVKPGVSTGELERICWDYIVNEQHATDSLTGHNGIDGHGSISINEVVCHGVPDDAKLLKDGDIVNIDVTVRKDGFHGDTSKMFIVGKPTIMGERLCRITQESLYLALRMVKPGINLREIGAAIQKFVEAEGFSVVREYCGHGIGRGHHEEPQVLHYDSRETNVVLKPGMTFTIEPMVNAGKKEIRTMKDGSTVKTKDRSLSAQYEHTIVVTDNGCEILTLRKDDTIPAIISHDE", "modifications": "Cy5 fluorophore non-specifically on lysine side chains", "notes": "also called NAAB for leucine"}, "B8": {"name": "ValNAAB (enzyme)", "chain": "MEKTYNPQDIEQPLYEHWEKQGYFKPNGDESQESFCIMIPPPNVTGSLHMGHAFQQTIMDTMIRYQRMQGKNTLWQVGTDHAGIATQMVVERKIAAEEGKTRHDYGREAFIDKIWEWKAESGGTITRQMRRLGNSVDWERERFTMDEGLSNAVKEVFVRLYKEDLIYRGKRLVNWDPKLRTAISDLEVENRESKGSMWHIRYPLADGAKTADGKDYLVVATTRPETLLGDTGVAVNPEDPRYKDLIGKYVILPLVNRRIPIVGDEHADMEKGTGCVKITPAHDFNDYEVGKRHALPMINILTFDGDIRESAQVFDTKGNESDVYSSEIPAEFQKLERFAARKAVVAAIDALGLLEEIKPHDLTVPYGDRGGVVIEPMLTDQWYVRADVLAKPAVEAVENGDIQFVPKQYENMYFSWMRDIQDWCISRQLWWGHRIPAWYDEAGNVYVGRNEEEVRKENNLGADVALRQDEDVLDTWFSSALWTFSTLGWPENTDALRQFHPTSVMVSGFDIIFFWIARMIMMTMHFIKDENGKPQVPFHTVYMTGLIRDDEGQKMSKSKGNVIDPLDMVDGISLPELLEKRTGNMMQPQLADKIRKRTEKQFPNGIEPHGTDALRFTLAALASTGRDINWDMKRLEGYRNFCNKLWNASRFVLMNTEGQDCGFNGGEMTLSLADRWILAEFNQTIKAYREALDSFRFDIAAGILYEFTWNQFCDWYLELTKPVMNGGTEAELRGTRHTLVTVLEGLLRLAHPIIPFITETIWQ", "notes": "Purified on GSTrap; also called Valine"}, "B9": {"name": "AsnNAAB (enzyme)", "chain": "SIEYLREVAHLRPRTNLIGAVARVRHTLAQALHRFFNEQGFFWVSTPLITASDTEGAGEMFRVSTLDLENLPRNDQGKVDFDKDFFGKESFLTVSGQLNGETYACALSKIYTFGPTFRAENSNTSRHLAEFWMLEPEVAFANLNDIAGLAEAMLKYVFKAVLEERADDMKFFAERVDKDAVSRLERFIEADFAQVDYTDAVTILENCGRKFENPVYWGVDLSSEHERYLAEEHFKAPVVVKNYPKDIKAFYMRLNEDGKTVAAMDVLAPGIGEIIGGSQREERLDVLDERMLEMGLNKEDYWWYRDLRRYGTVPHSGFGLGFERLIAYVTGVQNVRDVIPFPRTP", "notes": "Purified on GSTrap; also called Asparagine"}, "B10": {"name": "ArgNAAB (enzyme)", "chain": "EKQTIVVDYSAPNVAKEMHVGHLRSTIIGDAAVRTLEFLGHKVIRANHVGDWGTQFGMLIAWLEKQQQENAGEMELADLEGFYRDAKKHYDEDEEFAERARNYVVKLQSGDEYFREMWRKLVDITMTQNQITYDRLNVTLTRDDVMGESLYNPMLPGIVADLKAKGLAVESEGATVVFLDEFKNKEGEPMGVIIQKKDGGYLYTTTDIACAKYRYESLHADRVLYYIDSRQHQHLMQAWAIVRKAGYVPESVPLEHHMFGMMLGKDGKPFKTRAGGTVKLADLLDETLERARRLVAEKNPDMPADELEKLANAVGIGAVKYADLSKNRTTDYIFDWDNMLAFEGNTAPYMQYAYTRVLSVFRKAEINEEQLAAAPVIIREDREAQLAARLLQFEETLTVVAREGTPHVMCAYLYDLAGLFSGFYEHCPILSAENEEVRNSRLKLAQLTAKTLKLGLDTLGIETVERM", "notes": "Purified on GSTrap; also called Arginine"}, "B11": {"name": "ThreNAAB (enzyme)", "chain": "RDHRKIGKQLDLYHMQEEAPGMVFWHNDGWTIFRELEVFVRSKLKEYQYQEVKGPFMMDRVLWEKTGHWDNYKDAMFTTSSENREYCIKPMNCPGHVQIFNQGLKSYRDLPLRMAEFGSCHRNEPSGSLHGLGRVRGFTQDDAHIFCTEEQIRDEVNGCIRLVYDMYSTFGFEKIVVKLSTRPEKRIGSDEMWDRAEADLAVALEENNIPFEYQLGEGAFYGPKIEFTLYDCLDRAAQCGTVQLDFSLPSRLSASYVGEDNERKVPVMIHRAILGSMEVFIGILTEEFAGFFPTWLAPVQVVIMNITDSQSEYVNELTQKLSNAGIRVKADLRNEKIGFKIREHTLRRVPYMLVCGDKEVESGKVAVRTRRGKDLGSMDVNEVIEKLQQEIRSRSLKQLEE", "notes": "Purified on GSTrap; also called Threonine"}}, "key": {"[1]": {"molecular_target": "peptide with N-terminal lysine", "assay": "biolayer interferometry (Blitz), peptide-coated sensor, NAAB in 1x PBS, 1:1 fit, kd/ka"}, "[2]": {"molecular_target": "peptide with N-terminal glutamate", "assay": "biolayer interferometry (Blitz), peptide-coated sensor, NAAB in 1x PBS, 1:1 fit, kd/ka"}, "[3]": {"molecular_target": "peptide with N-terminal glutamine", "assay": "biolayer interferometry (Blitz), peptide-coated sensor, NAAB in 1x PBS, 1:1 fit, kd/ka"}, "[4]": {"molecular_target": "peptide with N-terminal serine", "assay": "biolayer interferometry (Blitz), peptide-coated sensor, NAAB in 1x PBS, 1:1 fit, kd/ka"}, "[5]": {"molecular_target": "peptide with N-terminal methionine (biolayer interferometry)", "assay": "biolayer interferometry (Blitz), peptide-coated sensor, NAAB in 1x PBS, 1:1 fit, kd/ka"}, "[6]": {"molecular_target": "peptide with N-terminal isoleucine", "assay": "biolayer interferometry (Blitz), peptide-coated sensor, NAAB in 1x PBS, 1:1 fit, kd/ka"}, "[7]": {"molecular_target": "synthetic peptide with N-terminal leucine (Example 1, on nanogel surface)", "assay": "single-molecule detection, TIRF microscopy; Cy5-labeled NAAB on peptide immobilized on nanogel; counts per field of view", "procedure": "The NAAB for N-terminal leucine amino acids was non-specifically labeled with Cy5 fluorophore on lysine side chains. […] An additional experiment was performed with no peptide added. The labeled NAAB was briefly incubated with the immobilized peptide, and unbound protein was removed by washing. Bound protein, which may be bound specifically to peptides or non-specifically to the surface, was imaged by total internal reflection fluorescence (TIRF) microscopy. Spots exceeding a detection threshold were deemed to indicate bound protein and were converted to a number of counts per field-of-view."}, "[8]": {"molecular_target": "peptide with N-terminal valine", "assay": "biolayer interferometry (Blitz), peptide-coated sensor, NAAB in 1x PBS, 1:1 fit, kd/ka"}, "[9]": {"molecular_target": "peptide with N-terminal asparagine", "assay": "biolayer interferometry (Blitz), peptide-coated sensor, NAAB in 1x PBS, 1:1 fit, kd/ka"}, "[10]": {"molecular_target": "peptide with N-terminal arginine", "assay": "biolayer interferometry (Blitz), peptide-coated sensor, NAAB in 1x PBS, 1:1 fit, kd/ka"}, "[11]": {"molecular_target": "peptide with N-terminal threonine", "assay": "biolayer interferometry (Blitz), peptide-coated sensor, NAAB in 1x PBS, 1:1 fit, kd/ka"}}, "data": [{"binder": "B1", "values": [{"measurement": "Kd", "setting": "[1]", "value": 2610, "unit": "nM"}]}, {"binder": "B2", "values": [{"measurement": "Kd", "setting": "[2]", "value": 2120, "unit": "nM"}]}, {"binder": "B3", "values": [{"measurement": "Kd", "setting": "[3]", "value": 531, "unit": "nM"}]}, {"binder": "B4", "values": [{"measurement": "Kd", "setting": "[4]", "value": 938, "unit": "nM"}]}, {"binder": "B5", "values": [{"measurement": "Kd", "setting": "[5]", "value": 1070, "unit": "nM"}]}, {"binder": "B6", "values": [{"measurement": "Kd", "setting": "[6]", "value": 3010, "unit": "nM"}]}, {"binder": "B7", "values": [{"measurement": "ratio of specific to non-specific binding", "setting": "[7]", "value": "~2 to 1"}]}, {"binder": "B8", "values": [{"measurement": "Kd", "setting": "[8]", "value": 1220, "unit": "nM"}]}, {"binder": "B9", "values": [{"measurement": "Kd", "setting": "[9]", "value": 754, "unit": "nM"}]}, {"binder": "B10", "values": [{"measurement": "Kd", "setting": "[10]", "value": 129, "unit": "nM"}]}, {"binder": "B11", "values": [{"measurement": "Kd", "setting": "[11]", "value": 1010, "unit": "nM"}]}]}
